Laboratory results reported in patent publication US20240182536A1 (MURAL ONCOLOGY, published 2024).

T1: interleukin 18 binding protein (IL-18BP) (UniProt O95998 31-194)
T1 sequence (looked up): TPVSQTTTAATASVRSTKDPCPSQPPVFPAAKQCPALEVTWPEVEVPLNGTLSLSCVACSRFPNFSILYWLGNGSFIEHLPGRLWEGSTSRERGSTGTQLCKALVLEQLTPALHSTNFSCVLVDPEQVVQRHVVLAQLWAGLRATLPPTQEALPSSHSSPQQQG

T2: IL-18 receptors on HEK-Blue IL-18 reporter cells (UniProt Q13478 19-541; O95256 20-599, limits assumed)
T2 sequence (looked up) 1: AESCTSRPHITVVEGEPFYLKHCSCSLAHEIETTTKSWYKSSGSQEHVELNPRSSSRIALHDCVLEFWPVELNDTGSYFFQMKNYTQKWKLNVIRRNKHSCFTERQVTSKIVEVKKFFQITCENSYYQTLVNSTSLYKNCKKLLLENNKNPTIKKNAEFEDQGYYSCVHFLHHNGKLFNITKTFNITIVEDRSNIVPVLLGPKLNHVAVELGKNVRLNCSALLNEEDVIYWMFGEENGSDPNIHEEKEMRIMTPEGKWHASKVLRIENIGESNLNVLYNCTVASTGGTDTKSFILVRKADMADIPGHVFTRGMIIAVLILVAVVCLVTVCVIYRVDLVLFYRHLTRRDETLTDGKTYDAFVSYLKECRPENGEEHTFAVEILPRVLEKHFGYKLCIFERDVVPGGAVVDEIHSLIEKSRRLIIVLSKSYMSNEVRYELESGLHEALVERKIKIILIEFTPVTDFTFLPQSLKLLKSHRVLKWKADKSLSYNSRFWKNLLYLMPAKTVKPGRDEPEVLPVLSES
T2 sequence (looked up) 2: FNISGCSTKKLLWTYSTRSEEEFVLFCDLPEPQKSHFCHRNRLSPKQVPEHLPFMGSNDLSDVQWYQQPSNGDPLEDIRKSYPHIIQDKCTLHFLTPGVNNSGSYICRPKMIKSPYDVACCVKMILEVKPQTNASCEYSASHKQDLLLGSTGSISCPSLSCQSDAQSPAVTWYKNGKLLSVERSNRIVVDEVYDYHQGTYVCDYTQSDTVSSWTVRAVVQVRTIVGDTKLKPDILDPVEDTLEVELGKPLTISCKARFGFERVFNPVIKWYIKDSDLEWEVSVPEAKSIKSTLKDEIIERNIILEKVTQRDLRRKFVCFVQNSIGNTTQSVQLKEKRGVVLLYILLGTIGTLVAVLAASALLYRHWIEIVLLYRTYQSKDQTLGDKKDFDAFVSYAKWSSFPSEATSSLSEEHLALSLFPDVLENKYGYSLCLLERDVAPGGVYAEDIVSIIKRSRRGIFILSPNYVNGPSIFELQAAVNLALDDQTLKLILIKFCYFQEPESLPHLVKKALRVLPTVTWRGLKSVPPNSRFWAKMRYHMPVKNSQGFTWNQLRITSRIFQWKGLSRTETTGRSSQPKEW


Key:
[1] = target: T1, interleukin 18 binding protein (IL-18BP); test: cell-based or functional assay
[2] = target: T2, IL-18 receptors on HEK-Blue IL-18 …; test: cell-based or functional assay

Binder	HEK-Blue activity, +100 nM BP, DF-10000 [1]	HEK-Blue activity, +100 nM BP, DF-100,000 [1]	HEK-Blue activity, +100 nM BP, DF-1,000,000 [1]	Ratio (-BP/+BP), DF-10000 [1]	Ratio (-BP/+BP), DF-100,000 [1]	Ratio (-BP/+BP), DF-1,000,000 [1]	HEK-Blue activity, No BP, DF-10000 [2]	HEK-Blue activity, No BP, DF-100,000 [2]	HEK-Blue activity, No BP, DF-1,000,000 [2]
IL-18 variant K53S, S55Y, P107M (ligand) YFGKLESKLSVIRNLNDQVLFIDQGNRPLFEDMTDSDMRDNAPRTIFIISMYSDYQPRGMAVTISVKSEKISTLSSENKIISFKEMNPPDNIKDTKSDIIFFQRSVMGHDNKMQFESSSYEGYFLASEKERDLFKLILKKEDELGDRSIMFTVQNED	0.19	0.14	0.18	0.82	0.76	0.69	0.15	0.11	0.12
IL-18 variant K53H, S55H (ligand) YFGKLESKLSVIRNLNDQVLFIDQGNRPLFEDMTDSDMRDNAPRTIFIISMYHDHQPRGMAVTISVKSEKISTLSSENKIISFKEMNPPDNIKDTKSDIIFFQRSVPGHDNKMQFESSSYEGYFLASEKERDLFKLILKKEDELGDRSIMFTVQNED	0.15	0.1	0.09	1.01	0.99	0.96	0.15	0.1	0.08
IL-18 variant L9V, K53H, S55M (ligand) YFGKLESKVSVIRNLNDQVLFIDQGNRPLFEDMTDSDMRDNAPRTIFIISMYHDMQPRGMAVTISVKSEKISTLSSENKIISFKEMNPPDNIKDTKSDIIFFQRSVPGHDNKMQFESSSYEGYFLASEKERDLFKLILKKEDELGDRSIMFTVQNED	0.16	0.1	0.14	0.94	1.01	0.78	0.15	0.1	0.11
IL-18 variant K53H, S55Q (ligand) YFGKLESKLSVIRNLNDQVLFIDQGNRPLFEDMTDSDMRDNAPRTIFIISMYHDQQPRGMAVTISVKSEKISTLSSENKIISFKEMNPPDNIKDTKSDIIFFQRSVPGHDNKMQFESSSYEGYFLASEKERDLFKLILKKEDELGDRSIMFTVQNED	0.14	0.1	0.1	1.03	1.03	0.91	0.14	0.1	0.09
IL-18 variant K53H, S55M, Q56H (ligand) YFGKLESKLSVIRNLNDQVLFIDQGNRPLFEDMTDSDMRDNAPRTIFIISMYHDMHPRGMAVTISVKSEKISTLSSENKIISFKEMNPPDNIKDTKSDIIFFQRSVPGHDNKMQFESSSYEGYFLASEKERDLFKLILKKEDELGDRSIMFTVQNED	0.15	0.1	0.09	0.97	0.96	0.92	0.14	0.09	0.08
IL-18 variant K53H, S55I (ligand) YFGKLESKLSVIRNLNDQVLFIDQGNRPLFEDMTDSDMRDNAPRTIFIISMYHDIQPRGMAVTISVKSEKISTLSSENKIISFKEMNPPDNIKDTKSDIIFFQRSVPGHDNKMQFESSSYEGYFLASEKERDLFKLILKKEDELGDRSIMFTVQNED	0.16	0.11	0.1	0.92	0.9	0.89	0.14	0.1	0.09
